Columns and labels:
[1] = target: T1, human IL-18 (human, UniProt Q14116 37-193); assay: SPR (Biacore)
T1 construct: also called hIL-18

[2] = target: T1, human IL-18; assay: cell-based or functional assay
[3] = target: T2, human IL-12 (human, UniProt P29459 23-219; P29460 23-328); assay: cell-based or functional assay
T2 sequence (looked up) 1: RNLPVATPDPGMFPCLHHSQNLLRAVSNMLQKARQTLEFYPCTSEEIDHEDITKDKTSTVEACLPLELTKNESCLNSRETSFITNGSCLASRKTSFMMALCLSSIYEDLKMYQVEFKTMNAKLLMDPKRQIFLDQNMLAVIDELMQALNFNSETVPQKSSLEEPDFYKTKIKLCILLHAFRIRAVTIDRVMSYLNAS
T2 sequence (looked up) 2: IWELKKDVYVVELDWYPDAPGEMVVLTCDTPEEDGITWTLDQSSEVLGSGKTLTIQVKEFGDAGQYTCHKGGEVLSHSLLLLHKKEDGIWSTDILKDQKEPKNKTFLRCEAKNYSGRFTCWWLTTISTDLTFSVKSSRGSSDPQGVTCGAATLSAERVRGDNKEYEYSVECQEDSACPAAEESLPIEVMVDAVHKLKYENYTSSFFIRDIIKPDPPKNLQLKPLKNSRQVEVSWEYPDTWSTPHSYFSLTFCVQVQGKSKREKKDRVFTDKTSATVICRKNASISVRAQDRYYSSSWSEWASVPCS

B1: DVD1812SL (anti-IL-18/IL-12 DVD-Ig, 18-12-C, short linker) (bispecific antibody, human IgG1, kappa)
heavy: not shown
light: EIVMTQSPATLSVSPGERATLSCRASESISSNLAWYQQKPGQAPRLFIYTASTRATDIPARFSGSGSGTEFTLTISSLQSEDFAVYYCQQYNNWPSITFGQGTRLEIKRTVAAPQSVLTQPPSVSGAPGQRVTISCSGSRSNIGSNTVKWYQQLPGTAPKLLIYYNDQRPSGVPDRFSGSKSGTSASLAITGLQAEDEADYYCQSYDRYTHPALLFGTGTKVTVLGTVAAPSVFIFPPSDEQLKSGTASVVCLLNNFYPREAKVQWKVDNALQSGNSQESVTEQDSKDSTYSLSSTLTLSKADYEKHKVYACEVTHQGLSSPVTKSFNRGEC
notes: also called DVD1812HC-SL / DVD1812LC-SL
Kd [1]: 110 pM | Potency (IC50, M), KG-1 bioassay [2]: 4e-11 M

B2: ABT-874 (fully human anti-human IL-12p40 mAb) (antibody, V domains shown)
VH: QVQLVESGGGVVQPGRSLRLSCAASGFTFSSYGMHWVRQAPGKGLEWVAFIRYDGSNKYYADSVKGRFTISRDNSKNTLYLQMNSLRAEDTAVYYCKTHGSHDNWGQGTMVTVSS
VL: QSVLTQPPSVSGAPGQRVTISCSGSRSNIGSNTVKWYQQLPGTAPKLLIYYNDQRPSGVPDRFSGSKSGTSASLAITGLQAEDEADYYCQSYDRYTHPALLFGTGTKVTVLG
IC50 (M), IL-12-induced IFN-γ production by PHA blast cells [3]: 5e-12 M

B3: DVD1812LL (anti-IL-18/IL-12 DVD-Ig, 18-12-C, long linker) (bispecific antibody, human IgG1, kappa)
heavy: not shown
light: EIVMTQSPATLSVSPGERATLSCRASESISSNLAWYQQKPGQAPRLFIYTASTRATDIPARFSGSGSGTEFTLTISSLQSEDFAVYYCQQYNNWPSITFGQGTRLEIKRTVAAPSVFIFPPQSVLTQPPSVSGAPGQRVTISCSGSRSNIGSNTVKWYQQLPGTAPKLLIYYNDQRPSGVPDRFSGSKSGTSASLAITGLQAEDEADYYCQSYDRYTHPALLFGTGTKVTVLGTVAAPSVFIFPPSDEQLKSGTASVVCLLNNFYPREAKVQWKVDNALQSGNSQESVTEQDSKDSTYSLSSTLTLSKADYEKHKVYACEVTHQGLSSPVTKSFNRGEC
Potency (IC50, M), KG-1 bioassay [2]: 7.8e-11 M

B4: ABT-325 (fully human anti-human IL-18 mAb) (antibody, V domains shown)
VH: EVQLVQSGTEVKKPGESLKISCKGSGYTVTSYWIGWVRQMPGKGLEWMGFIYPGDSETRYSPTFQGQVTISADKSFNTAFLQWSSLKASDTAMYYCARVGSGWYPYTFDIWGQGTMVTVSS
VL: not shown
IC50 (M), KG-1 bioassay (IL-18-induced IFN-γ production) [2]: 3e-10 M

— patent EP2495257A2 (Abbott Laboratories, dated 2012)
